Reference: patent US20130007924A1
pIC50: −log10 of the molar value.

Columns and labels:
[1] = biological target: putative receptor proteins in brush border membrane vesicles (BBMV) from European corn borer (Ostrinia nubilalis) larval midgut (Ostrinia nubilalis); test: homologous competition: unlabeled Cry1Ab against 0.5 nM 125I Cry1Ab on ECB BBMV
[2] = biological target: putative receptor proteins in brush border membrane vesicles (BBMV) from European corn borer (Ostrinia nubilalis) larval midgut (Ostrinia nubilalis); test: heterologous competition: unlabeled Cry2Aa at 1,000 nM against 0.5 nM 125I Cry1Ab on ECB BBMV

| Substance | pIC50 [1] | percent displacement of 125I Cry1Ab at 1,000 nM competitor [2] [%] |
| --- | --- | --- |
| Cry1Ab protein (truncated Cry toxin) (from UniProt P0A370 29-612) | 8.52 | – |
| Cry2Aa protein (from UniProt P0A377 1-633) | – | < 50 |
